Columns and labels:
Test in all cases: ELISA
UbV.ANKRD13D.4 L70A = UbV.ANKRD13D.4 L70A (UniProt P0CG47)
UbV.ANKRD13D.4 Q49A = UbV.ANKRD13D.4 Q49A (UniProt P0CG47)
UbV.ANKRD13D.4 S65A = UbV.ANKRD13D.4 S65A (UniProt P0CG47)
UbV.ANKRD13D.4 T12A = UbV.ANKRD13D.4 T12A (UniProt P0CG47)
UbV.ANKRD13D.4 W72A = UbV.ANKRD13D.4 W72A (UniProt P0CG47)

Measured: fold effect on affinity against UbV.ANKRD13D.4

RGQQEEEDLQRILQLSLTEH [UIM.ANKRD13D.4 peptide]
< 3 fold: all assays above
